Data from patent US20260258141A1 (BIOCYTOGEN PHARMACEUTICALS BEIJING, published 2026).
Numbering of substitutions follows the chain as printed. One block for each binder: values may come before it.

Tests used:
[1] = biological target: T1, cynomolgus monkey IGF1R on cells (cynomolgus monkey, UniProt P08069 31-1367 (human entry)); assay: flow cytometry on CHO-S-fasIGF1R cells, antibody 20 µg/mL
T1 construct: Expressed on CHO-S cells; also called fasIGF1R; CHO-S-fasIGF1R cells
Description: (§1) INSR (insulin receptor) and IGF1R are both members of the superfamily of receptor tyrosine kinases (RTKs). The binding activity of anti-IGF1R antibodies to human IGF1R, human INSR and monkey IGF1R was verified by flow cytometry. Briefly, CHO-S-hIGF1R cells (expressing human IGF1R (SEQ ID NO: 45), CHO-S-fasIGF1R cells (expressing cynomolgus monkey IGF1R (SEQ ID NO: 46) and CHO-S-hINSR (expressing SEQ ID NO: 47) were plated in a 96-well plate at a density of 2×10⁵ cells/well respectively. Purified anti-IGF1R antibody with a concentration of 20 μg/mL was added to each well and was incubated at 4° C. for 30 minutes. Then, after one wash with PBS, the cells were incubated with the secondary antibody Alexa Fluor® 647 anti-human IgG Fcγ (Jackson ImmunoResearch Laboratories, Inc., Cat #: 109-606-170) at 4° C. for 15 minutes before flow cytometry analysis. Human IgG1 was used as ISO control.

[2] = biological target: T2, His-tagged human IGF1R protein (ACRO Biosystems Inc., Cat #: IGR-H5229) (human, UniProt P08069 31-932); assay: blocking ELISA on coated hIGF1R-His; blocked ligand: biotinylated human IGF-II
T2 construct: Bought protein; also called hIGF1R-His; not shown: His tag
T2 sequence (P08069 31-932): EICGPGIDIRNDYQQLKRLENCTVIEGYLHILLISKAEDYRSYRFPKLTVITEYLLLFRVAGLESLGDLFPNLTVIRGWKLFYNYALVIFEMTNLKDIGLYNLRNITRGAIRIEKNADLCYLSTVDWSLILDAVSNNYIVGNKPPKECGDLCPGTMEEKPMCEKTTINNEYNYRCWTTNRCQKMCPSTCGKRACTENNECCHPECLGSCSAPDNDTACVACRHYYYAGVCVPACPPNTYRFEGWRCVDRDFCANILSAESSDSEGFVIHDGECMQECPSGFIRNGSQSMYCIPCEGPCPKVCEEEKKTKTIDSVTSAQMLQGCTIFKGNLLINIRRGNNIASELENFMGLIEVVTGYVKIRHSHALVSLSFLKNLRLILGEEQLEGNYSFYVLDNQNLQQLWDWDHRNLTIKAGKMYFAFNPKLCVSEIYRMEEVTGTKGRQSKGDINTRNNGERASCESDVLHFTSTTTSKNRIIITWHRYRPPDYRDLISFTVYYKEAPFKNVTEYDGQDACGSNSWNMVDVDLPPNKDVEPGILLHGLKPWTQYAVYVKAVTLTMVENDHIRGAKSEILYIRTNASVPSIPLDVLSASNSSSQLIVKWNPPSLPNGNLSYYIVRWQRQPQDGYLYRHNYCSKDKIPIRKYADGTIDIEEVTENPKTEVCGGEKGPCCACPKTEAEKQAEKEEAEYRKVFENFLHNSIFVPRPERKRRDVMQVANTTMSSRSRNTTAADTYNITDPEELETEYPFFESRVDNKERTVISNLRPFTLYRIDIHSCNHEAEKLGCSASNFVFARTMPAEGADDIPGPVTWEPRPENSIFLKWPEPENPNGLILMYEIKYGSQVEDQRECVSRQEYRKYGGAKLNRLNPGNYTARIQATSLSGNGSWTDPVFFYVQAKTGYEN
Description: (§2) Blocking assays were performed to determine whether the anti-IGF1R antibodies can block the binding between IGF1R and its ligand IGF-1 and IGF-2. Specifically, the microwell plates were coated with 100 μl/well of 5 μg/mL hIGF1R-His in pH 9.6 carbonate buffer, overnight at 4° C. Plates were blocked with at 200 μl/well of 1% bovine serum albumin and incubated at 37° C. for 2 hours. Serially diluted anti-IGF1R antibodies (0.005-10 μg/mL in 3-fold serial dilution plus buffer blank) were added to the plates at 100 μL/well. After a 1.5-hour incubation, Biotinylated Human IGF-I Protein (Acro Biosystems, Cat #: IG1-H82F7) or Biotinylated Human IGF-I Protein was replaced with Biotinylated Human IGF-II Protein (Acro Biosystems, Cat #: IG2-H82Q6) were added to the plates at 100 μL/well. After a 1.5-hour incubation at 37° C., HRP Streptavidin (Biolegend, Cat #: 405210) at 1:3000 dilution was added to the plates at 100 μL/well and incubated for 1 hour. Plates were washed 5 times and 100 μL of TMB was added to each well, and incubated for 10 minutes. 100 uL of 1M Phosphoric Acid was then added to each well and ELISA plates were read at 450/570 nm wavelength. A fitting curve was obtained using Log (antibody concentration (M)) as the X-axis and […] as the Y-axis.

[3] = biological target: T3, human insulin receptor INSR on cells (human, UniProt P06213 28-1382); assay: flow cytometry on CHO-S-hINSR cells, antibody 20 µg/mL
T3 construct: Expressed on CHO-S cells; also called hINSR; CHO-S-hINSR cells
T3 sequence (P06213 other isoform, or with tags, fused parts or gaps limits assumed): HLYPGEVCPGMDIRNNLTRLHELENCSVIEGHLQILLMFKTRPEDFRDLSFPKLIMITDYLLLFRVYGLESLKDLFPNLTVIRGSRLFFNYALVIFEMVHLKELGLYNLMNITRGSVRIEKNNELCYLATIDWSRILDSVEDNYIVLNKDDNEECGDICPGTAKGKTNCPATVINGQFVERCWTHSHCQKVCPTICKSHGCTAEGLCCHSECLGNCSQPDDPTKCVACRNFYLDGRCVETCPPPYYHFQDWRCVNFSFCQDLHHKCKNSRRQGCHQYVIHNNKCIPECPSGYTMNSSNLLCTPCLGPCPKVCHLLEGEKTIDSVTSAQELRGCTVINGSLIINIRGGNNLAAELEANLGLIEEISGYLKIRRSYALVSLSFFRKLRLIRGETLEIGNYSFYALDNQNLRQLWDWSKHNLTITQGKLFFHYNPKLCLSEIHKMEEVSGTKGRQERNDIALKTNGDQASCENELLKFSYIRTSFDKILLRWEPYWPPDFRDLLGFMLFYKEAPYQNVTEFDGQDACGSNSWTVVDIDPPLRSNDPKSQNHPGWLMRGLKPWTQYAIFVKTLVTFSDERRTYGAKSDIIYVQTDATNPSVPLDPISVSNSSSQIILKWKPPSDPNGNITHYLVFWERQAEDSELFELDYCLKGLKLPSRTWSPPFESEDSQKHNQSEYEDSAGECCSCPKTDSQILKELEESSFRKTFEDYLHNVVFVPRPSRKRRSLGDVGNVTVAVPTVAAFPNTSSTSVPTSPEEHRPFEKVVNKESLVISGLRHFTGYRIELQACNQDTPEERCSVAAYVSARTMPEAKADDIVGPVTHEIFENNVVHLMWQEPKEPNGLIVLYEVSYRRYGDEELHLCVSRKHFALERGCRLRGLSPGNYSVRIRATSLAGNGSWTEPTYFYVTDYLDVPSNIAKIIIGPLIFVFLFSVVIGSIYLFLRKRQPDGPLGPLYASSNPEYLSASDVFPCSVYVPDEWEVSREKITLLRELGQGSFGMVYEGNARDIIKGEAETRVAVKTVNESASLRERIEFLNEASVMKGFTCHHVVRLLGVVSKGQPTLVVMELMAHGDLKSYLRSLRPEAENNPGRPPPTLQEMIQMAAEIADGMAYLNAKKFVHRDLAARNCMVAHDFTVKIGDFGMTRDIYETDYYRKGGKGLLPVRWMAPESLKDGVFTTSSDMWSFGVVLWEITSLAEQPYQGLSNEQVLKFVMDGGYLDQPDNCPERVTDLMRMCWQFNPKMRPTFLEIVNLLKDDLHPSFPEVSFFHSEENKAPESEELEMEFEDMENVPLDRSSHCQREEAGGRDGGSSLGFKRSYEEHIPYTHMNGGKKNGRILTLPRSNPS
Description: as §1

[4] = biological target: T2, His-tagged human IGF1R protein (ACRO …); assay: SPR (Biacore 8K) on captured hIGF1R-His, binder injected second (Analyte 2); competitor injected first (Analyte 1): 10D1
Description: Epitope binding assays were performed using Biacore™ 8K biosensor to determine whether two anti-IGF1R antibodies target the same or overlapping epitopes. 1×HBS-EP+ buffer (10 mM 4-(2-hydroxyethyl)-1-piperazineethanesulfonic acid (HEPES), 150 mM NaCl, 3 mM ethylenediaminetetraacetic acid (EDTA) and 0.05% P20, pH7.4) diluted from HBS-EP+buffer (10×) was used as the running buffer throughout the experiment. About 50 RU of hIGF1R-His was captured at a flow rate of 10 μL/min, and 200 nM of the tested antibody (Analyte 1) was injected at a flow rate of 30 uL/min to bind the ligand. Another comparison antibody (Analyte 2) was injected under the same conditions to determine whether the binding of different antibodies interfered with each other. The binding time was 180 s for each antibody.
The binding value of each antibody was obtained using Biacore Insight Evaluation (Version: 2.0.15.12933). To quantify the interference of one antibody binding to another, a binding ratio was calculated to compare each pair of antibodies. The binding ratio is defined as the binding value of the second antibody (Analyte 2) divided by the binding value of the first antibody (Analyte 1). The threshold to determine the block or non-block is 0.3.

[5] = biological target: T2, His-tagged human IGF1R protein (ACRO …); assay: blocking ELISA on coated hIGF1R-His; blocked ligand: biotinylated human IGF-I
Description: as §2

T1 sequence (P08069 other isoform, or with tags, fused parts or gaps limits assumed): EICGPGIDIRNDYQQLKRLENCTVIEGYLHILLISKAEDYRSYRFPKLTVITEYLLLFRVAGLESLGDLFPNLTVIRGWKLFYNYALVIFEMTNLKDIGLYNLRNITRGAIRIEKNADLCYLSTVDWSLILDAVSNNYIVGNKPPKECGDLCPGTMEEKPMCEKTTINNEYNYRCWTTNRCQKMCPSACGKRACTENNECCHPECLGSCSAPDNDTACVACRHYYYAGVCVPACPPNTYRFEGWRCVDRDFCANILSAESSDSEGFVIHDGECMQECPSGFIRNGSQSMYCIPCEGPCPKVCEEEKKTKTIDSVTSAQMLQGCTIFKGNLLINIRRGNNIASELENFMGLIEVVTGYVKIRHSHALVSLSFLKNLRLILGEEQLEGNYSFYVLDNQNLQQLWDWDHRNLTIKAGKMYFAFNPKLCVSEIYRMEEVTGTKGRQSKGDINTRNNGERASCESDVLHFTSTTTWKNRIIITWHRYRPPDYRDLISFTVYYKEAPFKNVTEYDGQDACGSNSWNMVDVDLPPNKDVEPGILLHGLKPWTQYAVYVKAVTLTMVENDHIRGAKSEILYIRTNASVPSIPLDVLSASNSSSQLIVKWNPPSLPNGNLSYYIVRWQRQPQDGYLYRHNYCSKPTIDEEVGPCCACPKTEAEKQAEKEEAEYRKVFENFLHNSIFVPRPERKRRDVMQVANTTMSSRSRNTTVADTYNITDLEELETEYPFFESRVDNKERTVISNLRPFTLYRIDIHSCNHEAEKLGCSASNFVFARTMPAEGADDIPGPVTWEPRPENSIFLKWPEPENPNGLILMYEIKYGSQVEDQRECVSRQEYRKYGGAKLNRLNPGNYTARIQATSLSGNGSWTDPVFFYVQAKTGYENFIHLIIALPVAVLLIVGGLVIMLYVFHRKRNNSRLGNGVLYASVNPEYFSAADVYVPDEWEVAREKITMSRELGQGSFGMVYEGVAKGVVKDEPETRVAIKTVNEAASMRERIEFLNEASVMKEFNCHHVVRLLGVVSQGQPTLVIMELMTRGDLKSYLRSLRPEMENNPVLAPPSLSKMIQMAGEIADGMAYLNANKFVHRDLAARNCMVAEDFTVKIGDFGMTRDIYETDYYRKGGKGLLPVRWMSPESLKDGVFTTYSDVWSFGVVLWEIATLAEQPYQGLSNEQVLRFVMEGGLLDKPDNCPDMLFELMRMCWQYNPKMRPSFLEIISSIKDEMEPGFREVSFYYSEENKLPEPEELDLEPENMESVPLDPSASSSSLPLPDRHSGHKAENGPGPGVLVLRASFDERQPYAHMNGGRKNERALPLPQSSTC

Percentage of positive cells [1]: 54.4%
IC50 [2]: 1.9 nM
Max inhibition (%) (10 µg/mL) [2]: 81%
Percentage of positive cells [3]: 0.4%
binding ratio (Analyte 2 / Analyte 1) [4]: -0.05
IC50 [5]: 2 nM
Max inhibition (%) (10 µg/mL) [5]: 50%
B1: anti-IGF1R antibody 12A4 (antibody, V domains shown)
VH: EVQLVQSGGGEIRPGGSLRLSCAASGFTFADYGMSWVRQAPGEGLEWVSEIDWTGGSKLYADSVKGRFTISRDNAKNSLFLQMNSLRAEDTALYYCVRDRGAVSPKYYYYGMDVWGQGTTVTVSS
VL: EIVLTQSPSSLSASVGDRVTITCRASQGIRNDLGWYQQKPGKAPKRLIYAASRLQSGVPSRFSGSGSGTDFTLTISSLQPEDFATYYCLQHNSYPYTFGQGTKLEIK

Percentage of positive cells [1]: 60.7%
IC50 [2]: 1.6 nM
Max inhibition (%) (10 µg/mL) [2]: 88%
Percentage of positive cells [3]: 0.5%
binding ratio (Analyte 2 / Analyte 1) [4]: -0.04
IC50 [5]: 2.2 nM
Max inhibition (%) (10 µg/mL) [5]: 55%
B2: anti-IGF1R antibody 12D1 (antibody, human IgG1, V domains shown)
VH: QVQLVESGGGVVRPGGSLRLSCAASGFTFDDYGMSWVRQVPGKGLEWVSGINWNGGSTDYADSVKGRFTISREKAKNSLYLQMNSLRAEDTALYYCVRDRGAVTRRYYYYGMDVWGQGTTVTVSS
VL: B1 VL with E1D, V3Q, L4M, G28D, Q38L, D70E

Percentage of positive cells [1]: 64.8%
IC50 [2]: 1.7 nM
Max inhibition (%) (10 µg/mL) [2]: 76%
Percentage of positive cells [3]: 1.5%
binding ratio (Analyte 2 / Analyte 1) [4]: -0.02
IC50 [5]: 1.3 nM
Max inhibition (%) (10 µg/mL) [5]: 47%
B3: anti-IGF1R antibody 10D1 (antibody, human IgG1, V domains shown)
VH: B2 VH with V5Q, E6Q, D30A, E73D, K74N, N77H, L93F, V97A, T104S, Q117L
VL: B1 VL with E1A, V3Q, G28D, Q38L, R61G, D70E

Percentage of positive cells [1]: 73.9%
IC50 [2]: 5.2 nM
Max inhibition (%) (10 µg/mL) [2]: 73%
Percentage of positive cells [3]: 0.7%
binding ratio (Analyte 2 / Analyte 1) [4]: -0.04
IC50 [5]: 1.6 nM
Max inhibition (%) (10 µg/mL) [5]: 43%
B4: anti-IGF1R antibody 10G1 (antibody, human IgG1, V domains shown)
VH: QVQLVESGGGLVKPGGSLRLSCAASEFTFSDYYMSWIRQSPGKGLEWVSYISNSGSFTNYADSVKGRFTISRDNAKNSLYLQMNSLRAEDSAIYYCVRDQAPVTSKYYYYGMDVWGQGTTVTVSS
VL: B1 VL with L33F, G34A, S56R, D70E
